Consider one molecule from patent US20210017289A1 (AbbVie / Abbott, published 2021).

The target in test [1] is T1, Cyno OX40-Fc fusion (cynomolgus monkey, UniProt P43489 29-214 (human entry), limits assumed).
T1 construct: also called recombinant cynomolgus (cyno) OX40; not shown: Fc part of the fusion
T1 chain: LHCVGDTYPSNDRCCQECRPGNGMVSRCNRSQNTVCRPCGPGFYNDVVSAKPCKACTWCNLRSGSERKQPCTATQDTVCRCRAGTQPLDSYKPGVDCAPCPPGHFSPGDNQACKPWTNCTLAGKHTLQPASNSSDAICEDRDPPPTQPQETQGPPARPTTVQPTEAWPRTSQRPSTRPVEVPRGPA
Put plainly: ELISA on plates coated with Cyno OX40-Fc fusion. As for the experimental part: Immunolon 4×HB 96-well plates (Thermo Scientific) were coated with 1 μg/mL of Cyno OX40-Fc fusion at 4° C. overnight. Plates were blocked with PBS containing 1% bovine serum albumin (BSA) for 30 minutes at RT and then washed three times with PBST (PBS with 0.1% Tween 20). OX40-coated plates were then incubated with indicated concentrations of anti-OX40 antibody at room temperature for one hour. Plates were washed four times with PBST and then incubated for 1 hour at room temperature with 100 μL of goat anti-human FAB fragment specific-Biotin (Jackson ImmunoResearch) prepared to a dilution of 1:5000 in PBS containing 1% BSA. Plates were then washed five times in PBST and 100 μL of a 1:1000 dilution of streptavidin-HRP (Thermo Scientific) was added to each well and incubated for 30 minutes at room temperature. Plates were then washed five times in PBST and 100 μL of TMB One component (Surmodics) were added to each well and incubated at room temperature until color developed (approximately 5-10 minutes). Optical density (OD) was read at 650 nm (Molecular Devices Spectromax190).

Test [2] concerns the target T2, human OX40-FC (R&D Systems) (human, UniProt P43489 29-216).
T2 construct: Purchased reagent; also called recombinant human OX40; not shown: Fc part of the purchased fusion
T2 sequence: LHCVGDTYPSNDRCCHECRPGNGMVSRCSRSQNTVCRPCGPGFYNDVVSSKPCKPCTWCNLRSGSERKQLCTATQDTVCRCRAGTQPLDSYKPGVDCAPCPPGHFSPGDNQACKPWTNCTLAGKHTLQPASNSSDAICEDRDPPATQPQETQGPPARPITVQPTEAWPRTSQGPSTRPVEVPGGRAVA
Put plainly: ELISA on plates coated with human OX40-Fc. As for the experimental part: Immunolon 4×HB 96-well plates (Thermo Scientific) were coated with 1 μg/mL of human OX40-FC (R&D Systems) at 4° C. overnight. Plates were blocked with phosphate-buffered saline (PBS) containing 1% bovine serum albumin (BSA) for 30 minutes at room temperature and then washed three times with PBST (PBS with 0.1% Tween 20) using a plate washer. OX40-coated plates were then incubated with indicated concentrations of test antibody at room temperature for one hour. Plates were washed four times with PBST and then incubated for 1 hour at room temperature with 100 μL of goat anti-human Fab fragment specific-Biotin (Jackson ImmunoResearch) prepared to a dilution of 1:5000 in PBS containing 1% BSA. Plates were then washed five times in PBST and 100 μL of a 1:1000 dilution of streptavidin-horseradish peroxidase (HRP) (Thermo Scientific) was added to each well and incubated for 30 minutes at room temperature. Plates were subsequently washed five times in PBST and 100 μL of TMB One component (Surmodics) were added to each well and incubated at room temperature (RT) until color developed (approximately 5-10 minutes). Optical density (OD) was read at 650 nm (Molecular Devices Spectromax190).

For test [3], the target named is T3, cynomolgus OX40 on activated cynomolgus monkey CD4+ T cells (cynomolgus monkey, UniProt P43489 29-277 (human entry)).
T3 chain: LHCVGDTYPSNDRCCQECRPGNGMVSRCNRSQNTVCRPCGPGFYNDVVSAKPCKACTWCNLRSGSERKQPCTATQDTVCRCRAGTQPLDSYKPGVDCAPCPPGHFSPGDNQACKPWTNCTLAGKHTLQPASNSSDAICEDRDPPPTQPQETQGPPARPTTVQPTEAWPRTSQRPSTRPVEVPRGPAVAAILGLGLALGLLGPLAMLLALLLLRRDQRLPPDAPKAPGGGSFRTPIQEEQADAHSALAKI
Put plainly: flow cytometry on PHA and IL-2 activated cynomolgus monkey CD4+ T cells. Here is the method: Cynomolgus monkey whole blood was purchased from Worldwide Primates. For isolation of PBMCs, whole blood was diluted in a 1:1 ratio with PBS without magnesium and calcium (GE Healthcare). Diluted blood (30 mL) was layered under 13 mL of 95% Ficoll-Paque Plus (GE Healthcare) prepared in PBS without magnesium and calcium (GE Healthcare) in 50-mL conical tubes. The tubes were spun at 1000 g for 25 minutes. The interphase was collected and washed twice in 1×PBS. Cells were resuspended to 2×10⁶ cells/mL in RPMI/10% FBS. Cells were incubated for […] with […] phytohemagglutinin (PHA) (Sigma) and 100 U/mL recombinant human interleukin-2 (IL-2) (Proleukin®, Prometheus) in 6-well plates. After 24 hours, cells were washed, counted and resuspended to 2×10⁶/mL. 100 μL of the cells were used per stain. Test anti-OX40 antibody was titrated in a 4-fold dilution series starting at 1 μg/mL. Cells were stained for 30 minutes and washed twice. A 1:250 dilution (4 μg/mL) of Goat anti-Human IgG Fc specific-PE (Jackson ImmunoResearch) in 100 μL PBS containing 1% BSA was added per well. Cells were stained for an additional 30 minutes and washed twice, transferred to tubes and acquired using the BD LSR Fortessa flow cytometer, and analyzed using FACSDiva analysis software version 8.0.1.

Test [4] addresses T4, human OX40 expressed on cells (human, UniProt P43489 29-277).
T4 sequence: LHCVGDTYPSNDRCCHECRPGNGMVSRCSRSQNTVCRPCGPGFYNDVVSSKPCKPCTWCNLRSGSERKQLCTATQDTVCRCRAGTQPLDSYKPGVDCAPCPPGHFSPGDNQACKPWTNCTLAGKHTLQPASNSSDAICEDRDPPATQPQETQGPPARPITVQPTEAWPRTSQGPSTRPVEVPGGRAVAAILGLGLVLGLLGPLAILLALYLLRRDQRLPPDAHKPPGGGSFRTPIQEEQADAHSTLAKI
Put plainly: cell-based or functional assay.

B1: Hu3738 (antibody, V domains shown)
VH: EVQLVESGGGLVQPGGSLRLSCAASGFTFSRYGMSWVRQAPGKGLELVATINSNGGRTYYPDSVKGRFTISRDNAKNSLYLQMNSLRAEDTAVYYCAREGITTAYAMDYWGQGTTVTVSS
VL: DIVMTQSPDSLAVSLGERATINCKASQSVDYDGDSYMHWYQQKPGQPPKLLIYAASILESGVPDRFSGSGSGTDFTLTISSLQAEDVAVYYCQQSNEDPRTFGGGTKVEIKR
notes: Humanized antibody; also called exemplary anti-OX40 antibody Hu3738; Hu3738 VH.1b / Hu3738 VL.1
With B1, the EC50 was found to be 0.039 nM in test [1], 0.044 nM in test [2] and 0.024 nM in test [3]. The “EC50 With Cross-linker (nM), NF-κB signaling” value in test [4] stood at 0.088 nM. Besides, the “EC50 Without Cross-linker (nM), NF-κB signaling” value in test [4] worked out at 20 nM.
